B1: CPEB3 Ribozyme (parent)
chain: GGGGGCCACAGCAGAAGCGUUCACGUCGCGGCCCCUGUCAGAUUCUGGUGAAUCUGCGAAUUCUGCUGU

Variants of: B1
Experiment: self-cleavage, relative activity (ratio to wild type); higher = more cleavage; co-transcriptional

Row | Variant | self-cleavage
1 | GGGGGCCACAGCAGAAGCGUUCACGUCGCGGCGCCUGUCAGAUUCUGGUGAUUCUGCGAAUUCUGCUGU | 0.444
2 | GGGGGCCACAGCAGAAGCGUUCACGUCGCGGCACCUGUCAGAUUCAGGUGAAUCUGCGAAUUCUGCUGU | 0.617
3 | GGGGGCCACAGCAGAAGCGUUCACGUCGCGGCACCUGUCAGAUUCGGGUGAAUCUGCGAAUUCUGCUGU | 0.737
4 | GGGGGCCACAGCAGAAGCGUUCACGUCGCGGCACCUGUCAGAUUCCGGUGAAUCUGCGAAUUCUGCUGU | 0.847
5 | GGGGGCCACAGCAGAAGCGUUCACGUCGCGGCGCCUGUCAGAUUCUGGUGAAUCUGCGAAUUCUGCUCU | 0.877
6 | GGGGGCCACAGCAGAAGCGUUCACGUCGCGGCGCCUGUCAGAUUCUGGUGAAUCUGCGAAUUCUGCUUU | 0.861
7 | GGGGGCCACAGCAGAAGCGUUCACGUCGCGGCGCCUGUCAGAUUCUGGUGCAUCUGCGAAUUCUGCUGU | 0.335
8 | GGGGGCCACAGCAGAAGCGUUCACGUCGCGGCGCCUGUCAGCUUCUGGUGAAUCUGCGAAUUCUGCUGU | 0.314
9 | GGGGGCCACAGCAGAAGCGUUCACGUCGCGGCGCCUGUCAGGUUCUGGUGAAUCUGCGAAUUCUGCUGU | 0.522
10 | GGGGGCCACAGCAGAAGCGUUCACGUCGCGGCACCUGUCAGAUUCUGGUGAAUCUGCGAAUUCUGCUCU | 0.967
11 | GGGGGCCACAGCAGAAGCGUUCACGUCGCGGCUCCUGUCAGAUUCUGGUGAUUCUGCGAAUUCUGCUGU | 0.922
12 | GGGGGCCACAGCAGAAGCGUUCACGUCGCGGCUCCUGUCAGAUUCUGGUGAGUCUGCGAAUUCUGCUGU | 0.993
13 | GGGGGCCACAGCAGAAGCGUUCACGUCGCGGCUCCUGUCAGAUUCUGGUGAAUCUGCGAAUUCUGCUGU | 0.994
14 | GGGGGCCACAGCAGAAGCGUUCACGUCGCGGCGCCUGUCAGAUUCUGGUGAAUCUGCGAAUUCUGCUGU | 0.668
15 | GGGGGCCACAGCAGAAGCGUUCACGUCGCGGCACCUGUCAGAUUCUGGUGAAUCUGCGAAUGCUGCUGU | 0.559
16 | GGGGGCCACAGCAGAAGCGUUCACGUCGCGGCACCUGUCAGAUUCUGGUGAAUCUGCGAAUCCUGCUGU | 0.584
17 | GGGGGCCACAGCAGAAGCGUUCACGUCGCGGCGCCUGUCAGAUUCUGGUGAAUCUACGAAUUCUGCUGU | 0.496
18 | GGGGGCCACAGCAGAAGCGUUCACGUCGCGGCGCCUGUCAGAUUCUGGUGAAUCUUCGAAUUCUGCUGU | 0.458
19 | GGGGGCCACAGCAGAAGCGUUCACGUCGCGGCACCUGUCACAUUCUGGUGAAUCUGCGAAUUCUGCUGU | 0.343
20 | GGGGGCCACAGCAGAAGCGUUCACGUCGCGGCGCCUGUCAGAUUCUGGUGAAUCUGCGAAUUCUGGUGU | 0.625

Row | Variant | self-cleavage
21 | GGGGGCCACAGCAGAAGCGUUCACGUCGCGGCGCCUGUCAGAUACUGGUGAAUCUGCGAAUUCUGCUGU | 0.29
22 | GGGGGCCACAGCAGAAGCGUUCACGUCGCGGCACCUCUCAGAUUCUGGUGAAUCUGCGAAUUCUGCUGU | 0.265
23 | GGGGGCCACAGCAGAAGCGUUCACGUCGCGGCUGCUGUCAGAUUCUGGUGAAUCUGCGAAUUCUGCUGU | 0.258
24 | GGGGGCCACAGCAGAAGCGUUCACGUCGCGGCGCCUGUCAGAUUCUGGUGAAUCUGCGAAUUAUGCUGU | 0.323
25 | GGGGGCCACAGCAGAAGCGUUCACGUCGCGGCGCUUGUCAGAUUCUGGUGAAUCUGCGAAUUCUGCUGU | 0.184
26 | GGGGGCCACAGCAGAAGCGUUCACGUCGCGGCUCCUGUCAGAUUCUGGUGAAUCUGCGACUUCUGCUGU | 0.319
27 | GGGGGCCACAGCAGAAGCGUUCACGUCGCGGCGCCUGUCAGAUUCUGGUGAAUCUGCGAAUUCUGCGGU | 0.93
28 | GGGGGCCACAGCAGAAGCGUUCACGUCGCGGCGCCUGUCAGAUUCUGGUGAAUCUGCGAAUUCUGCAGU | 0.857
29 | GGGGGCCACAGCAGAAGCGUUCACGUCGCGGCGCCUGUCAGAUUCUGGUGAACCUGCGAAUUCUGCUGU | 0.407
30 | GGGGGCCACAGCAGAAGCGUUCACGUCGCGGCGCCUGUCAGAUUCAGGUGAAUCUGCGAAUUCUGCUGU | 0.438
31 | GGGGGCCACAGCAGAAGCGUUCACGUCGCGGCACCUGUCAGAUUCUGAUGAAUCUGCGAAUUCUGCUGU | 0.95
32 | GGGGGCCACAGCAGAAGCGUUCACGUCGCGGCUCAUGUCAGAUUCUGGUGAAUCUGCGAAUUCUGCUGU | 0.233
33 | GGGGGCCACAGCAGAAGCGUUCACGUCGCGGCGCCUGUCAGAUUCUGGGGAAUCUGCGAAUUCUGCUGU | 0.692
34 | GGGGGCCACAGCAGAAGCGUUCACGUCGCGGCGCCUCUCAGAUUCUGGUGAAUCUGCGAAUUCUGCUGU | 0.16
35 | GGGGGCCACAGCAGAAGCGUUCACGUCGCGGCACCUGUCAGAUUCUGGUGAAUCUGCGAAGUCUGCUGU | 0.5
36 | GGGGGCCACAGCAGAAGCGUUCACGUCGCGGCGCCUGUCAGAUUCUGGUGAAUCUGCAAAUUCUGCUGU | 0.545
37 | GGGGGCCACAGCAGAAGCGUUCACGUCGCGGCGCCUGUCAGAUUCUGGUGAAUAUGCGAAUUCUGCUGU | 0.369
38 | GGGGGCCACAGCAGAAGCGUUCACGUCGCGGCGCCUGCCAGAUUCUGGUGAAUCUGCGAAUUCUGCUGU | 0.45
39 | GGGGGCCACAGCAGAAGCGUUCACGUCGCGGCGCCUGGCAGAUUCUGGUGAAUCUGCGAAUUCUGCUGU | 0.324

Reference: the RNAGym collection of RNA variant scans (doi:10.7554/elife.80360)
